Measured values: patent US20240189354A1

Molecular target: RQR8
Assay: cell-based or functional assay

RQR8, sequence (chain, as listed by the source limits assumed): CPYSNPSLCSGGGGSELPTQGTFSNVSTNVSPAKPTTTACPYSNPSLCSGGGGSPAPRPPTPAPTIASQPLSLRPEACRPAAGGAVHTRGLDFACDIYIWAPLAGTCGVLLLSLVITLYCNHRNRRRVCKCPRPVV

rituximab (antibody) showed a complement-dependent cytotoxicity (CDC): CAR+ cells eliminated, RTX 100 µg/ml with baby rabbit complement, 2 hours of 85%.
